B1: Hairpin Ribozyme (parent)
chain: GUCCUCUUUCACGUGCGCGUGAAAGAGAGAAGUGAACCAGAGAAACACACGUUGUGGUAUAUUACCUGGUA

Variants of: B1
Experiment: self-cleavage, relative activity (ratio to wild type); higher = more cleavage; co-transcriptional

Variant | self-cleavage
GUCCUCUUUCGCGUGCGCGUGAAAGAGAGAUGUGAACCAGAGAAACACACGUUGUGGUAUAUUACCUGGUA [A11G A31U] | 0.0838
GUCCUCUUUCGCGUGCGCGUGAAAGAGAGAGGUGAACCAGAGAAACACACGUUGUGGUAUAUUACCUGGUA [A11G A31G] | 0.728
GUCCUCUUUCGCGUGCGCGUGAAAGAGAGACGUGAACCAGAGAAACACACGUUGUGGUAUAUUACCUGGUA [A11G A31C] | 0.0862
GUCCUCUUUCCCGUGCGCGUGAAAGAGAGAAGUAAACCAGAGAAACACACGUUGUGGUAUAUUACCUGGUA [A11C G34A] | 1.01
GUCCUCUUUCCCGUGCGCGUGAAAGAGAGAAGUCAACCAGAGAAACACACGUUGUGGUAUAUUACCUGGUA [A11C G34C] | 1.07
GUCCUCUUUCCCGUGCGCGCGAAAGAGAGAAGUGAACCAGAGAAACACACGUUGUGGUAUAUUACCUGGUA [A11C U20C] | 1.02
GUCCUCUUUCCCGUGCGCGUGAAAGAGAGAAGUGAACCAGAGAAACACACGUUGUGGUCUAUUACCUGGUA [A11C A59C] | 0.0956
GUCCUCUUUCCCGUGCGCGUGAAAGAGAGAAGUGAACCAGAGAAACACACGUUGUGGUGUAUUACCUGGUA [A11C A59G] | 0.161
GUCCUCUUUCCCGUGCGCGUGAAAGAGAGAAGUGAACCAGAGAAACACACGUUGUGGUUUAUUACCUGGUA [A11C A59U] | 0.112
GUCCUCUUUCCCGUGCGCGUGAAAGAGAGAAGUGAACCAGAGAAAAACACGUUGUGGUAUAUUACCUGGUA [A11C C46A] | 0.142
GUCCUCUUUCGCGUGCGCGUGAAAGAGAGAAGUGAACCAGAGAAACACACGUUGUGGUAUUUUACCUGGUA [A11G A61U] | 0.136
GUCCUCUUUCGCGUGCGCGUGAAAGAGAGAAGUGAACCAGAGAAACACACGUUGUGGUAUGUUACCUGGUA [A11G A61G] | 0.166
GUCCUCUUUCCCGUGCGCGUGAAAGAGAGAAGUGAACCAGAGAAACACACGGUGUGGUAUAUUACCUGGUA [A11C U52G] | 0.857
GUCCUCUUUCGCGUGCGCGUGAAAGAGAGAAGUGAACCAGUGAAACACACGUUGUGGUAUAUUACCUGGUA [A11G A41U] | 1.14
GUCCUCUUUCCCGUGCGCGUGAAAGAGAGGAGUGAACCAGAGAAACACACGUUGUGGUAUAUUACCUGGUA [A11C A30G] | 0.0919
GUCCUCUUUCGCGUGCGCGUGAAAGAGAGAAGUGAAGCAGAGAAACACACGUUGUGGUAUAUUACCUGGUA [A11G C37G] | 0.34
GUCCUCUUUCGCGUGCGCGUGAAAGAGAGAAGUGAAACAGAGAAACACACGUUGUGGUAUAUUACCUGGUA [A11G C37A] | 0.149
GUCCUCUUUCCCGUGCGCGUGAAAGAGAGAAGUGAACCAGAGAAACACACGUUGUAGUAUAUUACCUGGUA [A11C G56A] | 0.15
GUCCUCUUUCCCGUGCGCGUGAAAGAGAGAAGUGAACCAGAGAUACACACGUUGUGGUAUAUUACCUGGUA [A11C A44U] | 0.155

Variant | self-cleavage
GUCCUCUUUCCCGUGCGCGUGAAAGAGAGAAGUGAACCAGAGAAACACACGUUGGGGUAUAUUACCUGGUA [A11C U55G] | 0.249
GUCCUCUUUCCCGUGCGCGUGAAAGAGAGAAGUGAACAAGAGAAACACACGUUGUGGUAUAUUACCUGGUA [A11C C38A] | 0.171
GUCCUCUUUCGCGUGCGCGUGAAAGAGGGAAGUGAACCAGAGAAACACACGUUGUGGUAUAUUACCUGGUA [A11G A28G] | 1.11
GUCCUCUUUCGCGUGCGCGUGAAUGAGAGAAGUGAACCAGAGAAACACACGUUGUGGUAUAUUACCUGGUA [A11G A24U] | 0.968
GUCCUCUUUCGCGUGCGCGUGAAGGAGAGAAGUGAACCAGAGAAACACACGUUGUGGUAUAUUACCUGGUA [A11G A24G] | 0.792
GUCCUCUUUCGCGUGCGCGUGAAAGAGAGAAGUGAACCAGAGAAACAUACGUUGUGGUAUAUUACCUGGUA [A11G C48U] | 0.144
GUCCUCUUUCCCGUGCGCGUGAAAGAGAAAAGUGAACCAGAGAAACACACGUUGUGGUAUAUUACCUGGUA [A11C G29A] | 0.128
GUCCUCUUUCCCGUGCGCGUGAAAGAGAGAAGUGAACCAGAGAAGCACACGUUGUGGUAUAUUACCUGGUA [A11C A45G] | 0.162
GUCCUCUUUCGCGUGCGCGUGAAAGAGAGAAGUGAACCAGAGAAACACACGUUGUGGUCUAUUACCUGGUA [A11G A59C] | 0.17
GUCCUCUUUCCCGUGCGCGUGAAAGAGAGAAGUGAACCAGAGAAACACACGUUGUGGUAUAUUACAUGGUA [A11C C66A] | 0.317
GUCCUCUUUCCCGUGCGCGUGAAAGAGAGAAGUGAACCAGAGAAACACACGUUGUGGUAUAUUACUUGGUA [A11C C66U] | 0.408
GUCCUCUUUCGCGUGCGCGUGAAAGAGAGAAGUGAACCAGAGAAACACAUGUUGUGGUAUAUUACCUGGUA [A11G C50U] | 0.321
GUCCUCUUUCCCGUGCGCCUGAAAGAGAGAAGUGAACCAGAGAAACACACGUUGUGGUAUAUUACCUGGUA [A11C G19C] | 0.589
GUCCUCUUUCCCGUGCGCGUGAAAGAGAGAAGUGAACCAGAGAAACACACGUUGUGGUAUAUUACCUGGAA [A11C U70A] | 0.877
GUCCUCUUUCCCGUGCGCGUGAAAGAGAGAAGUGAACCAGAGAAACACACGUUGUGGUAUAUUACCUGGGA [A11C U70G] | 0.608
GUCCUCUUUCCCGUGCGCGUGAAAGAGAGAAGUGAACCAGAGAAACACACGUUGUGGUAUAUUUCCUGGUA [A11C A64U] | 0.237
GUCCUCUUUCGCGUGCGCGUGAAAGAGAGAAGUGAACCAGAGAUACACACGUUGUGGUAUAUUACCUGGUA [A11G A44U] | 0.137
GUCCUCUUUCCCGUGCGCGUGAAAGAGAGAAGUGAACCAGAGAAACACACGUUGUGGUAUAUUAUCUGGUA [A11C C65U] | 0.431
GUCCUCUUUCCCGUGCGCGUGAAAGAGAGAAGUGAACCAGAGAAACACACGUUGUGGUAUAUUAACUGGUA [A11C C65A] | 0.896

From the RNAGym collection of RNA variant scans (doi:10.7554/elife.80360)
